We go through 3 proteins from paper PMC5812316 (Biophysics and Physicobiology, 2018).

Changes are numbered by the printed parent chain. Numbers in names are those of the source.

B1: Photozipper variant E159K (domain or fragment)
chain: GSISSELTEAQKVERRERNREHAKRSRVRKKFLLESLQQSVNELNHKNNSLKESIREHLGPRGDSLIAQSSPEADTLLTDNPSKANRILEDPDYSLVKALQMAQQNFVITDASLPDNPIVYASRGFLTLTGYSLDQILGRNCRFLQGPETDPRAVDKIRNAITKGVDTSVCLLNYRQDGTTFWNLFFVAGLRDSKGNIVNYVGVQSKVSEDYAKLLVNEQNIEYKGVRTSNMLRRK
B2: Photozipper variant E159R/K164R (domain or fragment)
chain: B1 chain with K47R, K52R
B3: Photozipper variant K164E (domain or fragment)
chain: B1 chain with K47E, K52E

This data set concerns the molecule itself. As to the kind of experiment: SEC.
For B1, the stoichiometry N (usually the number of molecules, sites or subunits per partner or assembly) was 2. Take B2: the “stoichiometry N” value is 2.

For the protein B3, the “stoichiometry N” value is 2.
